Laboratory results taken from article PMC5509671.

What was measured:
[1] = target: full length human Bax S4C, C62S, C126S, labelled (human) (UniProt Q07812); experiment: scanning FCCS in giant unilamellar vesicles; membrane-embedded proteins in GUVs (30% CL or MOM mix), 22 °C; membrane insertion with cBid (labelled cBid as partner, or unlabeled cBid as activator; for Bax with Bcl-xL: cBid, Bax and GUVs incubated 30 min before Bcl-xL was added); mean CC above 20% indicates interaction
[2] = target: full length human Bcl-xL S4C, C151A, labelled (human) (UniProt Q07817); experiment: FCCS kinetics in solution fitted with an ODE model; Bcl-xLR and Bcl-xLG mixed and incubated 2 h at RT, then 400 nM unlabeled cBid (~10-fold excess) or buffer added at t = 0; CC followed over time; rate constants from the ODE model of scenario 2 with likelihood profiles (95% confidence)
[3] = target: full length human Bcl-xL S4C, C151A, labelled (human) (UniProt Q07817); experiment: scanning FCCS in giant unilamellar vesicles; membrane-embedded proteins in GUVs (30% CL or MOM mix), 22 °C; membrane insertion with cBid (labelled cBid as partner, or unlabeled cBid as activator; for Bax with Bcl-xL: cBid, Bax and GUVs incubated 30 min before Bcl-xL was added); mean CC above 20% indicates interaction
[4] = target: full length human Bcl-xL S4C, C151A, labelled (human) (UniProt Q07817); experiment: fluorescence cross-correlation spectroscopy (FCCS) in solution; both partners free in solution, one with a green and one with a red dye; 150 mM NaCl, 20 mM Tris, pH 7.5; incubated at least 30 min (1 h for the cBidG titration); protein concentrations up to 200 nM; CC above 2.8% indicates interaction

Chain of UniProt Q07817 (Q07817 whole entry S4C/C151A): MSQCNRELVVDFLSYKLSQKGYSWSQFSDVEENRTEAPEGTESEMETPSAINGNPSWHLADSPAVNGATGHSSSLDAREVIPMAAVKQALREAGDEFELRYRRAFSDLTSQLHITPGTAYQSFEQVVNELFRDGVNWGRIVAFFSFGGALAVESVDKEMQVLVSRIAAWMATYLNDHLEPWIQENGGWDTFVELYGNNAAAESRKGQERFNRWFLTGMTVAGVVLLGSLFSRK
Chain of UniProt Q07812 (Q07812 whole entry S4C/C62S/C126S): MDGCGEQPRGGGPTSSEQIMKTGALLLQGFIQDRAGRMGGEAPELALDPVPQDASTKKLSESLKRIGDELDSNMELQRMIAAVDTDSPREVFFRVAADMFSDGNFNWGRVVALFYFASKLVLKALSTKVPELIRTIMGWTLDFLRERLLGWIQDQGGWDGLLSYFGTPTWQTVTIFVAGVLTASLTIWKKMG

In the case of “full length human Bax S4C, C62S, C126S, labelled (from UniProt Q07812 1-192) (natural protein)”, the %CC (highest, in single GUVs) [1] is reported as less than 100 % CC.
Substance “cBid (caspase 8-cleaved full length mouse Bid), unlabeled (complex)” has a k+3 (cBid with a Bcl-xL homo-dimer, giving a cBid/Bcl-xL hetero-dimer and a Bcl-xL monomer) [2] of 10 to 700 M⁻¹ s⁻¹.
Work on “cBid (caspase 8-cleaved full length mouse Bid) labelled at the C-terminal fragment (complex)” yielded a %CC [1] of less than 40 % CC, a %CC [3] greater than 60 % CC and a %CC [4] of less than 40 % CC.
